Target: T1, GST-p73 fusion proteins (Homo sapiens, UniProt O15350)
T1 construct: made in house
T1 sequence (O15350 114-328): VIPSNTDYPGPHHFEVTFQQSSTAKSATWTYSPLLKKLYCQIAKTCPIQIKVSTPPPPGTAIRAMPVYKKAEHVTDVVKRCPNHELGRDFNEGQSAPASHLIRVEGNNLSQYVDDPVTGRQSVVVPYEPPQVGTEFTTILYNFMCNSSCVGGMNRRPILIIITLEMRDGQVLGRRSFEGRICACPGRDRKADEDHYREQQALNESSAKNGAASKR
Assay: In vitro GST pull-down assay
Format: binding
Details: in vitro pull-down (FIG. 13)
Protocol: Whole cell lysates prepared from COS7 cells expressing FLAG-IKK-α were mixed with glutathione S-transferase (GST) or GST fusion protein and incubated with slow shaking at 4° C. for 2 hours in the presence of glutathione-Sepharose beads (Amersham Pharmacia Biotech). Then, the Sepharose beads were precipitated by brief centrifugation and vigorously washed with NETN buffer (pH 7.5; 50 mM Tris-Cl, 150 mM sodium chloride, 0.1% NP-40, and 1 mM EDTA) containing 1 mM PMSF. The proteins bound with the beads were eluted therefrom by the addition of 30 μL of 2×Laemmli SDS sample buffer, then boiled for 5 minutes, and separated with 10% SDS-PAGE. The proteins were transferred to PVDF membranes and immunoblotted with […] as described above.
To investigate whether IKK-α interacted with p73 in cultured mammal cells, whole cell lysates were prepared from transfected COS7 cells, then immunoprecipitated with an anti-FLAG or anti-HA antibody, and analyzed by immunoblot using an anti-p73 or anti-FLAG antibody, respectively. […] Likewise, HA-p73β was co-immunoprecipitated with FLAG-IKK-α (data not shown). […] To identify determinants of p73 participating in the interaction with IKK-α, several deletion mutants of p73 fused to GST were prepared and examined for their abilities to bind to FLAG-IKK-α by in-vitro pull-down assay. […]

B1: IKK-α: IKK-α protein, amino acid sequence SEQ ID NO: 24, expressed from plasmid; apoptosis enhancer (protein, listed as Homo sapiens)
chain: MERPPGLRPGAGGPWEMRERLGTGGFGNVCLYQHRELDLKIAIKSCRLELSTKNRERWCHEIQIMKKLNHANVVKACDVPEELNILIHDVPLLAMEYCSGGDLRKLLNKPENCCGLKESQILSLLSDIGSGIRYLHENKIIHRDLKPENIVLQDVGGKIIHKIIDLGYAKDVDQGSLCTSFVGTLQYLAPELFENKPYTATVDYWSFGTMVFECIAGYRPFLHHLQPFTWHEKIKKKDPKCIFACEEMSGEVRFSSHLPQPNSLCSLIVEPMENWLQLMLNWDPQQRGGPVDLTLKQPRCFVLMDHILNLKIVHILNMTSAKIISFLLPPDESLHSLQSRIERETGINTGSQELLSETGISLDPRKPASQCVLDGVRGCDSYMVYLFDKSKTVYEGPFASRSLSDCVNYIVQDSKIQLPIIQLRKVWAEAVHYVSGLKEDYSRLFQGQRAAMLSLLRYNANLTKMKNTLISASQQLKAKLEFFHKSIQLDLERYSEQMTYGISSEKMLKAWKEMEEKAIHYAEVGVIGYLEDQIMSLHAEIMELQKSPYGRRQGDLMESLEQRAIDLYKQLKHRPSDHSYSDSTEMVKIIVHTVQSQDRVLKELFGHLSKLLGCKQKIIDLLPKVEVALSNIKEADNTVMFMQGKRQKEIWHLLKIACTQSSARSLVGSSLEGAVTPQTSAWLPPTSAEHDHSLSCVVTPQDGETSAQMIEENLNCLGHLSTIIHEANEEQGNSMMNLDWSWLTE
B1 was tested, and the “binding to GST-p73 deletion mutants” value was “bonded to GST-p73 (114-328) but not to other GST-fused proteins”.
